Read-outs that look alike come from different tables or passages of the source.
Experiments:
[1] = biological target: T1, human Siglec-8 (full-length, on transfected CHO or 293 cells, or native on human eosinophils) (human, UniProt Q9NYZ4 17-499); experiment: flow cytometry on 293 cells transiently transfected with full-length human Siglec-8; A647 anti-human Fc-gamma secondary; median fluorescence, nonlinear fit; table under the graph
Protocol: (§1) The binding of the lmG2 and humanized versions (further including Siglec8 hzG2v14), formatted as monomeric VHH-hIgG1 fusions proteins using a non-dimerizing human IgG1 Fe variant region lacking a hinge Fe NNT, was assessed by flow cytometry using 293 cells that had been transiently transfected with full-length human Siglec-8 and detected with an anti-human AF647 secondary antibody. Binding specificity was assessed using untransfected 293 cells as a control. For the binding assays, Siglec-8 293 cells or untransformed 293 cells were seeded in a 96 well U-bottom plate with 50 k cells/well in FACS buffer and incubated at 4° C. with a titration of anti-Siglec8-VHH-NNT for 30 minutes. After washing, the plates were incubated with an A647-conjugated anti-human Fcγ specific secondary antibody diluted 1:10,000 in FACS buffer for 20 minutes at 4° C. The plates were washed, and binding was determined by flow cytometry quantitating anti-human A647 median fluorescent intensity. The maximum specific binding (Bmax) and affinity (Kd) for was determined from the flow cytometry binding data using a nonlinear fit model.

[2] = biological target: T1, human Siglec-8 (full-length, on …); experiment: flow cytometry on 293 cells transiently transfected with full-length human Siglec-8; A647 anti-human Fc-gamma secondary; median fluorescence, nonlinear fit; table under the graph (Kd column without unit, concentration axis nM Ab)
Protocol: as §1

[3] = biological target: T1, human Siglec-8 (full-length, on …); experiment: as above; remark: listed apart in the source
Protocol: as §1

[4] = biological target: T1, human Siglec-8 (full-length, on …); experiment: flow cytometry on 293 cells transiently transfected with full-length human Siglec-8; A647 anti-human Fc-gamma secondary; median fluorescence, nonlinear fit; table under the graph; remark: listed apart in the source
Protocol: as §1

[5] = biological target: T1, human Siglec-8 (full-length, on …); experiment: as above; remark: listed apart in the source
Protocol: as §1

[6] = biological target: T1, human Siglec-8 (full-length, on …); experiment: flow cytometry on 293 cells transiently transfected with full-length human Siglec-8; A647 anti-human Fc-gamma secondary; median fluorescence, nonlinear fit; table under the graph (Kd column without unit, concentration axis nM Ab); remark: listed apart in the source
Protocol: as §1

[7] = biological target: T1, human Siglec-8 (full-length, on …); experiment: flow cytometry on CHO cells transfected with human Siglec-8; labelled anti-human Fc-gamma secondary; Median RL1-H
Protocol: In additional studies, the parental llama G2 sequence was humanized and multivalent hzSiglec8-G2v14-Fc antibodies were cloned with a reduced effector function xELL human Fe. Binding of bivalent (ex11422; SEQ ID NO: 5 linked to an Fe xELL via linker 2), tetravalent (cx11580; SEQ ID NO: 9 linked to an Fe xELL via linker 2), and hexavalent (cx11579; SEQ ID NO: 10 linked to an Fe xELL via linker 2) hzSiglec8-G2v14-Fc antibodies were assessed by flow cytometry using CHO cells transfected with human Siglec-8. A titration series of the fusion proteins were incubated with the Siglec8-expressing CHO cells (5×10⁴ cells/well) for 30 minutes at 4° C. in FACS Buffer (PBS 1% BSA, 0.1% NaN3 pH 7.4) in 96 well plates. Following one 150 μL wash with FACS buffer, an APC-conjugated anti-human Fcγ specific secondary antibody (Jackson ImmunoResearch) was added, and cells were incubated for 30 minutes at 4° C. Following one additional wash in FACS buffer, bound antibodies were detected via flow cytometry (iQue Intellicyte).
The calculated affinity was similar between the bivalent, tetravalent, and hexavalent hzSiglec8-G2v14-Fc antibodies. The observed Bmax was reduced with increasing valency as anticipated, due the fact that the Fc portion of the antibody was detected in this assay and the ratio of Fc regions to anti-Siglec-8 binding domains is inverse to valency.

[8] = biological target: T1, human Siglec-8 (full-length, on …); experiment: cell-based or functional assay

T1 sequence (Q9NYZ4 17-499): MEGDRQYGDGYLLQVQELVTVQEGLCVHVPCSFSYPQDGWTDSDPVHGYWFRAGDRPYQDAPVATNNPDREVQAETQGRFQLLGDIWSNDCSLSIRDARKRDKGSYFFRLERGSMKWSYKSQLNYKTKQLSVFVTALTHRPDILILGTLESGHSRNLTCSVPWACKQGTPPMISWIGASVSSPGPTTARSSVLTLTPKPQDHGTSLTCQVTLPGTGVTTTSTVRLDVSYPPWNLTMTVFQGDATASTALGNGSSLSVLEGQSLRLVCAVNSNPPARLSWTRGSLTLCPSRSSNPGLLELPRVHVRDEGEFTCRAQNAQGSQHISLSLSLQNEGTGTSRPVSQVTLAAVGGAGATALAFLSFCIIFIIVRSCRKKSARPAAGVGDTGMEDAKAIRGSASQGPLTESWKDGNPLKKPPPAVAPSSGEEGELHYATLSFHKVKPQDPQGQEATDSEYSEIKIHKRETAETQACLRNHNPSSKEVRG

B1: llama anti-Siglec8-G2 VHH (lmG2), monomeric VHH-hIgG1 fusion (Fc NNT) (Fc fusion)
chain: QVTLKESGGGLVRTGGSLRLSCAASGSISIFSMYVVAWYRQAPGKQREWVAFIQRGGTANYADSAKGRFTISRDNAKNTVYLQMASLKPDDTAVYYCNYINSDNEIGGPWGQGTQVTVKP
notes: Monomeric format; also called parental clone; not shown: non-dimerizing human IgG1 Fc variant lacking a hinge (Fc NNT)
In the case of B1, the Bmax [1] is reported as 1.36e+06 Median (anti-human A647), the Kd [2] is reported as 0.0637 nM and the Kd [3] is reported as 0.114 nM. For the same binder, the Bmax [4] was 1.28e+06 Median (anti-human A647), the Bmax [5] was 1.15e+06 Median (anti-human A647) and the Kd [6] was 0.124 nM.

B2: tetravalent hzSiglec8-G2v14-Fc (xELL) (Fc fusion)
chain: EVQLLESGGGEVQPGGSLRLSCAASGSISIFSMYVVAWYRQAPGKEREWVAFIQRGGTANYAESAKGRFTISRDNAKNTVYLQMSSLRAEDTAVYYCNYINTDNEIGGPWGQGTLVTVKPGGSGGSEVQLLESGGGEVQPGGSLRLSCAASGSISIFSMYVVAWYRQAPGKEREWVAFIQRGGTANYAESAKGRFTISRDNAKNTVYLQMSSLRAEDTAVYYCNYINTDNEIGGPWGQGTLVTVKPGGGGDKTHTCPPCPAPGGPSVFLFPPKPKDTLMISRTPEVTCVVVDVSHEDPEVKFNWYVDGVEVHNAKTKPREEQYNSTYRVVSVLTVLHQDWLNGKEYKCKVSNKALPAPIEKTISKAKGQPREPQVYTLPPSRDELTKNQVSLTCLVKGFYPSDIAVEWESNGQPENNYKTTPPVLDSDGSFFLYSKLTVDKSRWQQGNVFSCSVMHEALHNHYTQKSLSLSPGK
notes: Homodimer through the Fc; also called cx11580
B2 was tested, and the “EC50 (read off the curve)” value [7] was ~0.04 nM, the “potency of eosinophil killing in the presence of IL-5, fold improvement over the afucosylated AK002 analog” value [8] was ~30 fold and the “potency of eosinophil killing in the presence of IL-5, fold increase compared to bivalent hzSiglec8-G2v14-Fc” value [8] was 10 fold.

B3: hexavalent hzSiglec8-G2v14-Fc (xELL) (Fc fusion)
chain: EVQLLESGGGEVQPGGSLRLSCAASGSISIFSMYVVAWYRQAPGKEREWVAFIQRGGTANYAESAKGRFTISRDNAKNTVYLQMSSLRAEDTAVYYCNYINTDNEIGGPWGQGTLVTVKPGGSGGSEVQLLESGGGEVQPGGSLRLSCAASGSISIFSMYVVAWYRQAPGKEREWVAFIQRGGTANYAESAKGRFTISRDNAKNTVYLQMSSLRAEDTAVYYCNYINTDNEIGGPWGQGTLVTVKPGGSGGSEVQLLESGGGEVQPGGSLRLSCAASGSISIFSMYVVAWYRQAPGKEREWVAFIQRGGTANYAESAKGRFTISRDNAKNTVYLQMSSLRAEDTAVYYCNYINTDNEIGGPWGQGTLVTVKPGGGGDKTHTCPPCPAPGGPSVFLFPPKPKDTLMISRTPEVTCVVVDVSHEDPEVKFNWYVDGVEVHNAKTKPREEQYNSTYRVVSVLTVLHQDWLNGKEYKCKVSNKALPAPIEKTISKAKGQPREPQVYTLPPSRDELTKNQVSLTCLVKGFYPSDIAVEWESNGQPENNYKTTPPVLDSDGSFFLYSKLTVDKSRWQQGNVFSCSVMHEALHNHYTQKSLSLSPGK
notes: Homodimer through the Fc; also called cx11579
With B3 the “EC50 (read off the curve)” value [7] was ~0.02 nM.
